From patent publication US20020157122
Where a chain is given by its changes, count along the chain named.

Columns and labels:
[1] = molecular target: humanized APP bearing the Swedish variant (a murine APP in which the Aβ1-42 region corresponds to the human Aβ1-42), P12023
[2] = molecular target: hAPP717 (variant of humanized APP), P12023
[3] = molecular target: T1, humanized wild type APP (hAPPwt), P12023
T1 chain: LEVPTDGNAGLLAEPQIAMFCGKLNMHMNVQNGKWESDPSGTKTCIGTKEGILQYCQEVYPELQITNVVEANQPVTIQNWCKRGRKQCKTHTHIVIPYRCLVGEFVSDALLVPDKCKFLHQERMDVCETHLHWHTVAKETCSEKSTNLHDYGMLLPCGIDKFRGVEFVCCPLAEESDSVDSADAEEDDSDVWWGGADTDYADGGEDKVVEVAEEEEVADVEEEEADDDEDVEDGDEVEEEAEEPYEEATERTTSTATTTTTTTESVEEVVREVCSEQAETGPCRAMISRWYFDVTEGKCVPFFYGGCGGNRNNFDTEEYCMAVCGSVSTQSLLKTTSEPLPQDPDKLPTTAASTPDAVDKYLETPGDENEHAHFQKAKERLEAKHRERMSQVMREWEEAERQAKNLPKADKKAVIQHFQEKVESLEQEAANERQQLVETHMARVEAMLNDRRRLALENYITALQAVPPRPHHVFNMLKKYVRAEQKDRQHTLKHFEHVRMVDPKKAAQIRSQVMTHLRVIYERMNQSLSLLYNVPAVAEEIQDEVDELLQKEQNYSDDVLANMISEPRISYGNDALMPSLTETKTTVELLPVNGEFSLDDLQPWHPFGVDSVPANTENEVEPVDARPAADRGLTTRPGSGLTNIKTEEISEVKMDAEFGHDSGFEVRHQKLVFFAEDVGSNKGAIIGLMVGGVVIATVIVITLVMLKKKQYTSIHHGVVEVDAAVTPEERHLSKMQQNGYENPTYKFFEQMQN

[4] = molecular target: T2, mouse APP (endogenous β-amyloid precursor protein), P12023
T2 chain: T1 chain

B1: BACE2 (endogenous, in cultured mouse astrocytes and neurons) (protein)
chain: ALEPVRATANFLAMVDNLQGDSGRGYYLEMLIGTPPQKVQILVDTGSSNFAVAGAPHSYIDTYFDSESSSTYHSKGFDVTVKYTQGSWTGFVGEDLVTIPKGFNSSFLVNIATIFESENFFLPGIKWNGILGLAYAALAKPSSSLETFFDSLVAQAKIPDIFSMQMCGAGLPVAGSGTNGGSLVLGGIEPSLYKGDIWYTPIKEEWYYQIEILKLEIGGQNLNLDCREYNADKAIVDSGTTLLRLPQKVFDAVVEAVARTSLIPEFSDGFWTGAQLACWTNSETPWAYFPKISIYLRDENASRSFRITILPQLYIQPMMGAGFNYECYRFGISSSTNALVIGATVMEGFYVVFDRAQRRVGFAVSPCAEIEGTTVSEISGPFSTEDIASNCVPAQALNEPILWIVSYALMSVCGAILLVLILLLLLPLHCRHAPRDPEVVNDESSLVRHRWK
relative amount of Aβ 1-19 and Aβ 1-20 normalized to Aβ1-40 (ProteinChip array coated with 6E10) [1]: BACE2 mediated cleavages (at +19 and +20 of Aβ) were much higher in cultured astrocytes as compared to neurons

B2: human BACE1 (full-length, expressed from recombinant adenovirus) (protein)
chain: ETDEEPEEPGRRGSFVEMVDNLRGKSGQGYYVEMTVGSPPQTLNILVDTGSSNFAVGAAPHPFLHRYYQRQLSSTYRDLRKGVYVPYTQGKWEGELGTDLVSIPHGPNVTVRANIAAITESDKFFINGSNWEGILGLAYAEIARPDDSLEPFFDSLVKQTHVPNLFSLQLCGAGFPLNQSEVLASVGGSMIIGGIDHSLYTGSLWYTPIRREWYYEVIIVRVEINGQDLKMDCKEYNYDKSIVDSGTTNLRLPKKVFEAAVKSIKAASSTEKFPDGFWLGEQLVCWQAGTTPWNIFPVISLYLMGEVTNQSFRITILPQQYLRPVEDVATSQDDCYKFAISQSSTGTVMGAVIMEGFYVVFDRARKRIGFAVSACHVHDEFRTAAVEGPFVTLDMEDCGYNIPQTDESTLMTIAYVMAAICALFMLPLCLMVCQWRCLRCLRQQHDDFADDISLLK
+11 derived β-CTF in neurons (immunoprecipitation with CT15) [2]: when neurons co-expressing human BACE1 and hAPPwt or hAPPswe or hAPP717 there is secreted a peptide corresponding to the +11 derived β-CTF (+11-CTF) in addition to the +1 derived β-CTF
secretion of human Aβ11-40 (IP-MS of conditioned media with 4G8) [2]: The human Aβ11-40 peptides are also secreted by primary neurons co expressing human BACE1 and hAPPswe or hAPP717
+11 derived β-CTF in neurons (immunoprecipitation with CT15) [1]: when neurons co-expressing human BACE1 and hAPPwt or hAPPswe or hAPP717 there is secreted a peptide corresponding to the +11 derived β-CTF (+11-CTF) in addition to the +1 derived β-CTF
secretion of Aβ peptides into culture medium of BACE1 deficient astrocytes [1]: BACE1 deficient astrocytes co-infected with adenoviruses expressing both APPswe and BACE1 restored the ability to secrete Aβ peptides into culture medium
secretion of human Aβ11-40 (IP-MS of conditioned media with 4G8) [1]: The human Aβ11-40 peptides are also secreted by primary neurons co expressing human BACE1 and hAPPswe or hAPP717
+11 derived β-CTF in neurons (immunoprecipitation with CT15) [3]: when neurons co-expressing human BACE1 and hAPPwt or hAPPswe or hAPP717 there is secreted a peptide corresponding to the +11 derived β-CTF (+11-CTF) in addition to the +1 derived β-CTF
secretion of human Aβ11-40 (IP-MS of conditioned media with 4G8) [3]: now revealed the secretion of human Aβ11-40 peptide in addition to the murine Aβ11-40 peptide from murine neurons co-expressing human BACE1 and hAPPwt

B3: mouse BACE1 (endogenous, beta-site APP-cleaving enzyme 1) (protein)
chain: B2 chain with P6S, V162I, L165I, S180T, V182A, I340V, L393A, Q443H
Aβ1-40 and Aβ1-42 in conditioned media of astrocytes (Aβ ELISA) [1]: Aβ1-40 and Aβ1-42 were easily detected from BACE1+/+ and BACE1+/- astrocyte cultures by Aβ ELISA assay, but were not detectable from BACE1-/- cultures
Aβ1-40 and Aβ1-42 in conditioned media of neurons (quantitative sandwich ELISA) [1]: showed high levels of Aβ1-40 and Aβ1-42 while undetectable levels of Aβ1-40 and Aβ1-42 were observed from media of BACE1-/- cultures expressing APPswe
secretion of Aβ peptides (IP-MS of conditioned media with 4G8) [3]: the human and murine Aβ1-40 and Aβ1-42 were secreted, however, the human Aβ11-40 peptide was not secreted into culture media from murine primary neurons infected with adenovirus expressing hAPPwt
secretion of Aβ peptides from primary cortical neurons (IP-MS of conditioned media with 4G8) [4]: secretion of these Aβ species is abolished from BACE1-/- neurons except for the Aβ 17-40 (p3) fragment
